Reference: patent US20160040149A1, “Compositions Having Dicamba Decarboxylase Activity and Methods of Use” (priority 2013, published 2016)
Numbering of substitutions follows the chain as printed.

B1: 1 (protein, listed as Rhizobium sp.)
chain: MAQGKVALEEHFAIPETLQDSAGFVPGDYWKELQHRLLDIQDTRLKLMDAHGIETMILSLNAPAVQAIPDRRKAIEIARRANDVLAEECAKRPDRFLAFAALPLQDPDAATEELQRCVNDLGFVGALVNGFSQEGDGQTPLYYDLPQYRPFWGEVEKLDVPFYLHPRNPLPQDSRIYDGHPWLLGPTWAFAQETAVHALRLMASGLFDEHPRLNIILGHMGEGLPYMMWRIDHRNAWVKLPPRYPAKRRFMDYFNENFHITTSGNFRTQTLIDAILEIGADRILFSTDWPFENIDHASDWFNATSIAEADRVKIGRTNARRLFKLDGA
B2: 121 (protein)
chain: MAIIDCHGHYTTTPKGVEDYRNAQKAAVAKDPSFKGEKGQVVVSDDEIRESIENNQLKMQRERGTDLTIFSPRWDAGGHHIGNEYTSQFWTEHQNDLIRRVCDLFPKNFAPVAQLPQSPGVDPAKSVPEIVRTVEQMGFIGINLNPDPSGGYWKDTSLADRAFYPIYEKMVEYDIPAMIHPRLACNACFHTGLSVGLGADTTGFQQLIMSDVFKDFPSLKIIIPHGGGAVPYHWGRFRGLMQDQGYAPLEESALKNIYFDTCVYHQRGIDLLLDIVPTQNILFASEMIGAVRGIDPETGHNFDDTKRYIDNNTALNAEEKAMIFEGNARRVFSRLKTD
modifications: Dicamba decarboxylase variant clone: DC.12.014
B3: 120 (protein)
chain: MAIIDCHGHYTTTPKGVETYRNAQKAAVAKDPSFKYEKGQVVVSDDEIRESIENNQLKMQRERGTDLTIFSPRSTAGGHHIGNEYTSQFWTEHQNDLIRRVCDLFPKNFAPVAQLPQSPGVDPAKSVPEIVRTVEQMGFIGINLNPDPSGGYWKDTSLADRAFYPIYEKMVEYDIPAMIHPRNACNDCFHTTGSHALGADTTGFQQLIMSDVFKDFPSLKIIIPHGGGAVPYHWGRFRGLMQDQGYAPLEESALKNIYFDTCVYHQRGIDLLLDIVPTQNILFASEMIGAVRGIDAETGHNFDDTKRYIDNNTALNAEEKAMIFEGNARRVFSRLKTD
modifications: Dicamba decarboxylase variant clone: DC.12.002
B4: 122 (protein)
chain: B3 chain with T19D, Y36G, E286D, A296P
modifications: Dicamba decarboxylase variant clone: DC.12.103

How the values were obtained:
[1] = Dicamba decarboxylase activity / product analysis with purified His-tag protein (14C assay and product detection of Example 1); assay type: biochemical; details: for dicamba decarboxylase activity: statement of the description; for other products (than 2,5-DCA): purified protein, dicamba substrate
Procedure: To obtain purified protein for activity assays, IPTG-induced cells were harvested by centrifugation at 7,000 rpm for 10 mins Cell pellet from 50 mL of cell culture was frozen and thawed twice and then lysed in 8004 lysis buffer consisting of 50 mM potassium phosphate buffer (pH7.0), 50 μM ZnSO4, 5% EG, 50 mM KCl, 1 mM DTT, 0.2 mg/ml lysozyme, 1/200 protease inhibitor cocktail (EMD set3, EDTA free), and 1/2,000 endonuclease. Lysate was then centrifuged at 13,000 rpm for 45 min at 4° C. Supernatant was loaded onto 200 μL Ni-NTA columns pre-equilibrated with 10 mM His Buffer containing 25 mM potassium phosphate buffer pH7, 50 μM ZnSO4, 5% EG, 200 mM KCl, and 10 mM histidine. The columns were let sit at 4° C. until the entire supernatant passed through. Each column was then washed with 200 ul 10 mM His Buffer twice and then 4 times with 800 ul loading buffer consisting of 25 mM potassium phosphate buffer pH7, 50 μM ZnSO4, 5% EG, 200 mM KCl. Protein was eluted with 1504 of Elution Buffer consisting of 25 mM potassium phosphate buffer pH7, 50 μM ZnSO4, 5% EG, 100 mM KCl, 100 mM histidine, 10% glycerol. The protein concentration was measured by Bradford assay. Purified protein was used for dicamba decarboxylase activity measurement as described in Example 1. Enzyme kinetic characterization of selected dicamba decarboxylases was determined through GC/MS measurement of 2,5-DCP or PEPC coupled assay as described in Example 1.

[2] = Saturation mutagenesis of SEQ ID NO:109: dicamba decarboxylation activity of point mutants (CO2 released), fold of backbone (Tables 7, 8, Megatable 1); details: decarboxylation activity (CO2 released) of point mutant vs unmutated backbone protein; backbone SEQ ID NO: 109
[3] = LC-MS/MS detection of 4-chloro-3-methoxy phenol; assay type: biochemical; details: purified protein, dicamba substrate
Procedure: The decarboxylated and chloro hydrolyzed product, 4-chloro-3-methoxy phenol (FIG. 1D), is measured using a LC-MS/MS analytical procedure. […] 10 ul is removed from the reaction mixture and mixed with 90 ul pre-chilled methanol followed by centrifugation at 14,000 rpm for 15 min at 4° C. 10 ul of the supernatant is then transferred into 170 ul ddH2O to achieve 5% methanol solution for injection. 50 ul of the prepared sample is injected into a 4000 Q Trap LC-MS/MS system for sample analysis. LC-MS/MS parameters are: Mobile Phase A, 2 mM ammonium acetate in water; Mobile Phase B, 2 mM ammonium acetate in methanol; Column, Aquasil, 100×2.1 mm, 3 μm, C18 column; Flow Rate, 0.6 ml/min. The MS/MS fragment 157/142 which is common to 4-chloro-3-methoxy phenol, 2-chloro-5-methoxy phenol, and 3-chloro-5-methoxy phenol is monitored at a retention time of 2.88 min.

[4] = GC/MS detection of decarboxylation product 2,5-DCA (toluene trapping or head space); assay type: biochemical; details: purified protein, dicamba substrate
Procedure: Alternatively, dicamba decarboxylase activity can be monitored by measuring decarboxylation products other than CO2 using product detection methods. The decarboxylation product of dicamba, 2,5-dichloro anisole or 2,5-DCA (FIG. 1C), is a volatile compound with a flash point of 21° C. To capture this volatile compound for detection, 140 ul of toluene solution is added on top of 1 ml reaction mixture to form a trapping layer in a 1.5 ml eppendorf tube. […] The reaction is kept still at room temperature overnight before being vortex mixed and centrifuged at 14,000 rpm for 15 minutes. The top toluene phase is carefully removed using a micropipette and transferred into a 12×32 mm polypropylene vial (Vial 11 mm) from MicroLiter Analytical Supplies, Inc. (catalog number 11-5300-100). The vial is sealed with Crimp seal (11 mm with FEP/Nat Rubber) from MicroLiter Analytical Supplies, Inc. (catalog number 11-0020A) using a E-Z Crimper™ 11 mm from Wheaton Inc. lul of the toluene mixture is taken from the sealed vials and injected in splitless mode into a GC/MS system for sample analysis (Agilent GC/MS system with a 6890A GC, a 5973N MSD and a CTC CombiPAL auto-sampler or with a 7890A GC, a 5975C MSD and an Agilent GC Sampler 80 auto-sampler). The GC parameters are: Agilent DB-5MS column (30 m length, 0.25 mm diameter, 0.25 um film) or equivalent; The GC inlet temperature, 250° C.; Carry gas, helium in constant flow mode (1.2 mL/min); The GC oven temperature program, initial temperature at 70° C. for 1 min, ramping to 200° C. at 15° C./min, and then ramping to 250° C. at 30° C./min. MS data acquisition is done in SIM (selected ion monitoring) mode, monitoring the positive ion at M/Z 176 for the molecular ion of […]. The solvent delay for MS acquisition is set at 4 min. Another method for detection of 2,5-DCA is a head-space GC/MS method. Briefly, reaction mixtures in 500 ul reaction volume are prepared in 1.5 ml 12×32 mm glass vials (Microliter Analytical Supplies, Cat#11-1200) for head space analysis. Glass vials are sealed with magnetic cap from MicroLiter Analytical Supplies, Inc. (catalog number 11-0030AT) using a E-Z Crimper™ 11 mm from Wheaton Industries Inc. The reaction is carried out at room temperature for various amount of time and stopped by heating at 95° C. for 5 min. The reaction vial is transferred to a agitator for incubation at 80° C. for 5 min at 500 rpm. With a syringe preheated at 80° C., 1000 uL of head space is injected with sample fill speed at 100 uL/sec. GC/MS parameters for headspace analysis are the same as for liquid sample analysis.

[5] = GC/MS detection of 2,5-DCP; assay type: biochemical; details: purified protein, dicamba substrate
Procedure: The decarboxylated and demethylated product of dicamba, 2,5-dichloro phenol or 2,5-DCP (FIG. 1E) is measured using a GC/MS analytical procedure with either liquid injection after liquid/liquid extraction using toluene as the extraction solvent or gas injection using head space method. The head space sample analysis is carried out on an Agilent GC/MS system with a 6890A GC, a 5973N MSD and a CTC CombiPAL auto-sampler or with a 7890A GC, a 5975C MSD and an Agilent GC Sampler 80 auto-sampler with Phenomenex ZB-MultiResidue-1 column (30 m length, 0.25 mm diameter, 0.25 um film) or equivalent. GC/MS parameters are: GC inlet temperature, 200° C.; Carry gas, helium in constant flow mode (1.2 mL/min); Oven temperature program, 70° C. for 1 min and then ramp to 275° C. at 40° C./min. Protein reactions are carried out in a 1.5 ml 12×32 mm glass vials for head space analysis as described previously. The reaction vial is transferred to a agitator for incubation at 90° C. for 4 min at 500 rpm. With a syringe preheated at 110° C., 1000 uL of head space is injected with sample fill speed at 100 uL/sec. A 2-mm diameter liner is used in sample inlet. The MS data acquisition is done in SIM (selected ion monitoring) mode. The positive ion at M/Z 162 for the molecular ion of 2,-5-DCP is monitored at retention time of 4.06 min. Solvent delay for MS acquisition is set at 3 min. […]

Row | Molecule | dicamba decarboxylase activity [1] | Fold Activity [2] [fold] | relative amount of 4-chloro-3-methoxy phenol compared to CO2 formation (100%) [3] [%] | relative amount of 2,5-DCA compared to CO2 formation (100%) [4] [%] | relative amount of 2,5-DCP compared to CO2 formation (100%) [5] [%] | other products (than 2,5-DCA) [1] | minor decarboxylation product 2,5-DCA [4]
1 | B1 | native dicamba decarboxylase activity | 1.2 | < 10 | < 1 | > 80 | – | –
2 | B2 | shown herein to have dicamba decarboxylase activity | 1 | – | – | – | not detected | detected
3 | B3 | shown herein to have dicamba decarboxylase activity | 1.3 | – | – | – | not detected | detected
4 | B4 | shown herein to have dicamba decarboxylase activity | 0.9 | – | – | – | not detected | detected
